Results: US20210363269A1 (ALX ONCOLOGY, published 2021)

How the values were obtained:
Assay in all cases: SPR, captured scFv-Fc
[1] = molecular target: T1, cynomolgus SIRP-α D1 domain (SEQ ID NO:11) (cynomolgus, UniProt Q5TFQ8 30-148 (human entry), limits assumed)
T1 construct: also called cyno1
T1 chain: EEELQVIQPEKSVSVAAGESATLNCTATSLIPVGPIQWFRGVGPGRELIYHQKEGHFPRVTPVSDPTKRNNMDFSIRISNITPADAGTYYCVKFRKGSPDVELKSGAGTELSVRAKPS
Method in brief: (§1)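 Dissociation rate constants (koff) were measured on a ProteOn XPR36 instrument by Langmuir model fitting. Antibody clones in scFv-Fc format were captured from pre-filtered culture media onto a GLC chip with about 4000 RU of amine-coupled anti-human IgG Fc. SIRP analytes ran in PBS pH 7.4 with 0.01% Tween-20 at 25° C, and the model used was 1:1, applied to data double-referenced against interspot and buffer-blank responses.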

[2] = molecular target: T2, cynomolgus SIRP-α D1 domain (SEQ ID NO:12) (cynomolgus, UniProt Q5TFQ8 30-148 (human entry), limits assumed)
T2 construct: also called cyno2; Cyno2
T2 chain: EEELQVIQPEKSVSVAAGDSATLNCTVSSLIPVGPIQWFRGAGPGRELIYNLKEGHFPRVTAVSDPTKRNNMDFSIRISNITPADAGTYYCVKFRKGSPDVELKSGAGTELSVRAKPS
Method in brief: as §1

[3] = molecular target: T3, C57BL/6 mouse SIRP-α D1 domain (mouse (C57BL/6 strain), UniProt P97797 32-148)
T3 sequence: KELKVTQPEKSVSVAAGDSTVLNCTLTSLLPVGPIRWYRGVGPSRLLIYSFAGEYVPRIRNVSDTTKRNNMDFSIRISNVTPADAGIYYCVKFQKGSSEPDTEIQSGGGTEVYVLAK
Method in brief: as §1

[4] = molecular target: T4, NOD mouse SIRP-α D1 domain (mouse (NOD strain))
T4 chain: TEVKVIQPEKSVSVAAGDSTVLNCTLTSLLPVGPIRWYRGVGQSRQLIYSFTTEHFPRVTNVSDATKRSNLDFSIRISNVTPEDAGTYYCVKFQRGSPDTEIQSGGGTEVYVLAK
Method in brief: as §1

[5] = molecular target: T5, mouse 129 SIRP-α D1 domain (mouse (129 strain), UniProt P97797 32-150)
T5 construct: also called m129
T5 chain: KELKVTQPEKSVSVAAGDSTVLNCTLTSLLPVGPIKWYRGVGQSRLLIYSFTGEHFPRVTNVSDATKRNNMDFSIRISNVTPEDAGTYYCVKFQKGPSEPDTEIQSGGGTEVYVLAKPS
Method in brief: as §1

[6] = molecular target: T6, human SIRP-α v2 D1 domain (human)
T6 construct: also called human v2; human α v2
Method in brief: as §1

human SIRPγ isoform 1 = molecular target: T7, human SIRPγ isoform 1 (human, UniProt Q9P1W8 29-147)
T7 construct: also called sirpg; sirp-g
T7 sequence (Q9P1W8 29-147 limits assumed): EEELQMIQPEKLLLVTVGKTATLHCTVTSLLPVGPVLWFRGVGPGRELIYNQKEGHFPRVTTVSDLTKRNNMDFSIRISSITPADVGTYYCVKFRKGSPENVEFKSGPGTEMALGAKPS
Method in brief: as §1

human SIRPβ isoform 1 = molecular target: T8, human SIRPβ isoform 1 (human, UniProt O00241 30-148)
T8 construct: also called sirpb1; Sirpb1
T8 sequence (O00241 30-148 limits assumed): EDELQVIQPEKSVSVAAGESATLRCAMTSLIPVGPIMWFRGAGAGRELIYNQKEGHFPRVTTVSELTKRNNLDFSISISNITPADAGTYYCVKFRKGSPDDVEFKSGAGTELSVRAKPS
Method in brief: as §1

Measured: binding result

B1: S138 scFv-Fc (scFv)
scFv: EIVLTQSPGTLSVSPGERVILTCRASQSVDTYNLAWYQQKPGQAPRLLIYDLSTRATGIPDRFSGSGSGTEFTLTINSLEPEDFAVYYCHQYYDWPPYTFGGGTKVEIKGQSSRSSGGGGSSGGGGSDVQLVESGGGVVRPGESLRLSCAASGFTFSNYAMNWVRQAPGEGLEWVSGISGRGGDTYYADSVKGRFTISRDNSKNTLYLQMNSLRAEDTAIYYCAKGTWNYGSFDYWGLGTLVTVSSSLDPKSSDKTDTCPPCPAPELLGGPSVFLFPPKPKDTLMISRTPEVTCVVVDVSHEDPEVKFNWYVDGV
notes: scFv-Fc; Human framework
no binding (tested: 100 nM): all assays above
